Data on three molecules can be found in patent CN103012589A (SHANGHAI SERUM BIO TECHNOLOGY CO LTD; INST BIOENGINEERING …, dated 2013).

Sequences and labels used below:
T1: 重组人VEGF165 (human, UniProt P15692-4 27-191)
T1 construct: also called VEGF双体; 人血管内皮细胞生长因子
T1 sequence: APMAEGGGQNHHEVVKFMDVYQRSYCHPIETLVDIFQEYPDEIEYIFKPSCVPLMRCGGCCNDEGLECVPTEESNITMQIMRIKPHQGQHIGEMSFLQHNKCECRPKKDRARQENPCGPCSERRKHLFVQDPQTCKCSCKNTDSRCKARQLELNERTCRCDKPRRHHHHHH

B1: VA6L-K90D_D92V (antibody, V domains shown)
VH: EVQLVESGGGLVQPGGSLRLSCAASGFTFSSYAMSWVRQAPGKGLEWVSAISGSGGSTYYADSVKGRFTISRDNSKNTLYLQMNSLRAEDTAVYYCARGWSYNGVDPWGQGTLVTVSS
VL: SYELTQPPSVSVAPGQTARITCSGDALGDKYASWYQQKPGQAPVLVIYEDSKRPSGIPERFSGSNSGNTATLTISGTQAEDEADYYCQVDSVNYGYVFGGGTKLTVLG
notes: also called VA6-3
B2: VA6全抗体 (antibody, V domains shown)
VH: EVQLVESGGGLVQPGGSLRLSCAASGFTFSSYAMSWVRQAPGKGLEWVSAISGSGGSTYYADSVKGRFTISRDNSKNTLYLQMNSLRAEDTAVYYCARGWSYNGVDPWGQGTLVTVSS
VL: B1 VL with D90K, V92D
notes: Whole antibody from vectors pABL (lambda) and pABG1 (human IgG1), HEK293T transient expression
B3: VA6-57 (antibody, IgG1, V domains shown)
VH: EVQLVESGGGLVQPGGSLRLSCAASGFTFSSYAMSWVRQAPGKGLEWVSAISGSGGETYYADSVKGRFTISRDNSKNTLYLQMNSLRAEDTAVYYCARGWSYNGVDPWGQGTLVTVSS
VL: B1 VL
notes: Whole antibody (IgG1, lambda); built further on VA6-3

Numbering of substitutions follows the chain as printed.

For this assay, the target named is T1, 重组人VEGF165. Nature of the assay: Biacore SPR, VEGF coupled on CM5 chip, whole antibody as analyte, 1:1 Langmuir fit. (In general: Surface plasmon resonance follows binding to a sensor surface in real time, without labels.)
As for B1, the dissociation constant Kd – broadly, the free concentration of one partner at which half of the binding sites on the other are occupied at equilibrium, for simple one-to-one binding – turned out to be 5.27 nM; the off-rate (koff) (as a rule, the first-order rate constant of dissociation) stood at 0.00149 s⁻¹; the kon (commonly a measure of how fast the partners come together) was 283000 M⁻¹ s⁻¹.

B2: the Kd is 12.7 nM, the off-rate (koff) was 0.000445 s⁻¹ and the kon came out at 35000 M⁻¹ s⁻¹.

In the case of B3, the Kd came out at 1.8 nM, the koff was 0.00096 s⁻¹ and the on-rate (kon) turned out to be 550000 M⁻¹ s⁻¹.
